Assay results as given in patent publication US20080044815A1, “Genetic Screen for Interaction Interface Mapping” (priority 2003, published 2008).
Entries after “also recorded” stand apart in the source; their conditions may differ.

T1: MKK7 (Mus musculus, UniProt Q8CE90)
T1 construct: expressed in transfected cells; host or cells: COS cells
T1 sequence (Q8CE90 1-419 isoform Q8CE90-2): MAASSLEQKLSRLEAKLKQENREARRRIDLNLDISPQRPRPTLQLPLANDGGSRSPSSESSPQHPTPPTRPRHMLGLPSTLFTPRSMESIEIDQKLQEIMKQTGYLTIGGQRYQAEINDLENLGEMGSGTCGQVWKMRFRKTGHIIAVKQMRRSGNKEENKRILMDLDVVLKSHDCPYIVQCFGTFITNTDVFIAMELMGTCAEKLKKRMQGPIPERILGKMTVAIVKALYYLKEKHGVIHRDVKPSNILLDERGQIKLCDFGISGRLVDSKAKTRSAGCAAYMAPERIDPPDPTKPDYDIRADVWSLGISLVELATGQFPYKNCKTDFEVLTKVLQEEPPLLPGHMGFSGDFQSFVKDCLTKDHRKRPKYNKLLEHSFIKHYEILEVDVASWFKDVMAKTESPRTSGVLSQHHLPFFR


Experiments:
TI-JIP = target: T2, TI-JIP (Homo sapiens, UniProt Q9UQF2); test: Yeast two-hybrid screening / β-galactosidase overlay assay of JNK1 point mutants for interaction with TI-JIP; assay type: cell-based; settings: single point mutants of JNK1, full-length expression confirmed by Western blot
T2 construct: Oligonucleotides encoding TI-JIP were annealed; expressed in transfected cells; host or cells: yeast diploids, RFY 206 (pSH18-34, pGILDA-TI-JIP) mated to PRT 49 (JNK mutants in pJG4-5)

GST-MKK4(ED) = test: In vitro phosphorylation (activation) of immunoprecipitated JNK by constitutively active MKK4; assay type: biochemical; settings: [32P]-ATP, relative to autophosphorylation
Procedure: FIG. 15a is a representation showing that JNK mutants were not activated by constitutively-active MKK4 (MKK4(ED)) or MKK7. […] JNK proteins were immunoprecipitated from transfected cell lysates, and immunoprecipitates were used as the substrates in in vitro kinase assays with GST-MKK4(ED). Following separation by SDS-PAGE, activation of JNK and mutant proteins was assessed by autoradiography (upper panel) (n=2). Coomassie Blue staining (lower panel) confirmed substrate loading.
FLAG-JNK1 proteins were immunoprecipitated by addition of anti-FLAG M2 (SIGMA) and incubation for 1 h on ice and then addition of Protein G-Sepharose and incubation at 4° C. for 2 h with rotation. Immunocomplexes were washed three times with lysis buffer, then once with reaction buffer (20 mM HEPES, 20 mM MgCl2, 20 mM β-glycerophosphate, 500 μM DTT, 100 μM Na3VO4; pH 7.6). For assays of JNK activity, the washed complexes were resuspended in 40 μL of reaction buffer containing 10 μg GST-c-Jun (1-135), 20 μM ATP and 1 μCi [λ-^32P]ATP and incubated at 30° C. for 30 min. Reactions were stopped by addition of 3× SDS-PAGE Sample Buffer and proteins were separated by SDS-PAGE. JNK activity towards GST-c-Jun (1-135) was visualized by autoradiography and quantitated by Cerenkov counting. For assays of JNK activation, the washed beads were incubated with 30 μL of reaction buffer containing 20 μM ATP, 5 μCi [λ-^32P]ATP and 1 μg of GST-MKK4(ED) at 30° C. for 1 h with occasional mixing. After removal of the supernatant, the beads were washed in 200 μl ice-cold lysis buffer and then heated for 5 min at 100° C. in 15 μL of 3× SDS-PAGE sample buffer, prior to separation by SDS-PAGE. Gels were Coomassie-stained, dried and used for autoradiography. Gel bands corresponding to FLAG-JNK were excised from the gels and their radioactivity quantitated by Cerenkov counting. Where immunoprecipitated GST-MKK7β1 was used to activate JNK, reactions were performed as above, but with 1 μCi [λ-^32P]ATP and incubation at 30° C. for 30 min.

MKK7 = target: T1, MKK7; test: Phospho-blotting for dual-phosphorylated JNK in COS cells co-transfected with MKK7; assay type: cell-based; settings: antibody to dual-phosphorylated JNK
GST-c-Jun(1-135) = test: In vitro kinase assay of FLAG-immunoprecipitated JNK1 from transfected COS cells towards GST-c-Jun(1-135); assay type: biochemical
Procedure: FIG. 14b is a representation showing a typical autoradiograph (upper panel) illustrating phosphorylation of GST-c-Jun(1-135) by wild-type (WT) JNK and mutants (n=2) for COS cells transfected as described in the legend to FIG. 14a. Transfected cells were incubated without sorbitol or exposed to hyperosmotic shock (0.5 M sorbitol, 30 min) prior to lysis. FLAG-tagged JNK1 and mutants were immunoprecipitated from cell lysates and then assayed for activity towards GST-c-Jun(1-135) using in vitro kinase assays. Coomassie Blue staining (lower panel) confirmed substrate loading.
FIG. 14c is a photographic representation showing a typical autoradiograph (upper panel) illustrating phosphorylation of GST-c-Jun(1-135) by wild-type (WT) JNK and mutants (n=2) for COS cells transfected as described in the legend to FIG. 14a, or co-transfected with a constitutively-active MEKK1 construct (CA-MEKK1). […]
FLAG-JNK1 proteins were immunoprecipitated by addition of anti-FLAG M2 (SIGMA) and incubation for 1 h on ice and then addition of Protein G-Sepharose and incubation at 4° C. for 2 h with rotation. […] JNK activity towards GST-c-Jun (1-135) was visualized by autoradiography and quantitated by Cerenkov counting. […] Gel bands corresponding to FLAG-JNK were excised from the gels and their radioactivity quantitated by Cerenkov counting. […]

Molecule	interaction of JNK1 mutant with TI-JIP (TI-JIP)	interaction of JNK1 mutant with TI-JIP (TI-JIP; listed as L131→R131)	phosphorylation/activation of JNK by active MKK4 (GST-MKK4(ED))	phosphorylation/activation of JNK by MKK7 (MKK7)	increase in c-Jun phosphorylation relative to cells transfected with JNK alone (GST-c-Jun(1-135); COS cells co-transfected with constitutively-active MEKK1 (CA-MEKK1))	activation of c-Jun phosphorylation over corresponding unstimulated cells (GST-c-Jun(1-135); COS cells, hyperosmotic shock 0.5 M sorbitol, 30 min)
Leu-131-Arg: single point mutant of human JNK1 (SEQ ID NO: 1) (protein, homo sapiens) MSRSKRDNNFYSVEIGDSTFTVLKRYQNLKPIGSGAQGIVCAAYDAILERNVAIKKLSRPFQNQTHAKRAYRELVLMKCVNHKNIIGLLNVFTPQKSLEEFQDVYIVMELMDANLCQVIQMELDHERMSYRLYQMLCGIKHLHSAGIIHRDLKPSNIVVKSDCTLKILDFGLARTAGTSFMMTPYVVTRYYRAPEVILGMGYKENVDLWSVGCIMGEMVCHKILFPGRDYIDQWNKVIEQLGTPCPEFMKKLQPTVRTYVENRPKYAGYSFEKLFPDVLFPADSEHNKLKASQARDLLSKMLVIDASKRISVDEALQHPYINVWYDPSEAEAPPPKIPDKQLDEREHTIEEWKELIYKEVMDLEERTKNGVIRGQPSPLAQVQQ	incapable of interaction with TI-JIP; also recorded: did not interact with TI-JIP	prevent interaction of JNK with TI-JIP	impaired in their activation	impaired in their activation	–	–
Arg-309-Trp: single point mutant of human JNK1 (SEQ ID NO: 1) (protein, homo sapiens) MSRSKRDNNFYSVEIGDSTFTVLKRYQNLKPIGSGAQGIVCAAYDAILERNVAIKKLSRPFQNQTHAKRAYRELVLMKCVNHKNIIGLLNVFTPQKSLEEFQDVYIVMELMDANLCQVIQMELDHERMSYLLYQMLCGIKHLHSAGIIHRDLKPSNIVVKSDCTLKILDFGLARTAGTSFMMTPYVVTRYYRAPEVILGMGYKENVDLWSVGCIMGEMVCHKILFPGRDYIDQWNKVIEQLGTPCPEFMKKLQPTVRTYVENRPKYAGYSFEKLFPDVLFPADSEHNKLKASQARDLLSKMLVIDASKWISVDEALQHPYINVWYDPSEAEAPPPKIPDKQLDEREHTIEEWKELIYKEVMDLEERTKNGVIRGQPSPLAQVQQ	–	–	impaired in their activation	–	–	–
wildtype JNK1: FLAG-tagged wild-type human JNK1 (SEQ ID NO: 1) expressed from pCMV-FLAG-JNK1 (protein, FLAG tag; homo sapiens) MSRSKRDNNFYSVEIGDSTFTVLKRYQNLKPIGSGAQGIVCAAYDAILERNVAIKKLSRPFQNQTHAKRAYRELVLMKCVNHKNIIGLLNVFTPQKSLEEFQDVYIVMELMDANLCQVIQMELDHERMSYLLYQMLCGIKHLHSAGIIHRDLKPSNIVVKSDCTLKILDFGLARTAGTSFMMTPYVVTRYYRAPEVILGMGYKENVDLWSVGCIMGEMVCHKILFPGRDYIDQWNKVIEQLGTPCPEFMKKLQPTVRTYVENRPKYAGYSFEKLFPDVLFPADSEHNKLKASQARDLLSKMLVIDASKRISVDEALQHPYINVWYDPSEAEAPPPKIPDKQLDEREHTIEEWKELIYKEVMDLEERTKNGVIRGQPSPLAQVQQ	–	–	increased the phosphorylation	strongly phosphorylated by MKK7	240 fold	5.5 fold
Tyr-320-His: single point mutant of human JNK1 (SEQ ID NO: 1) (protein, homo sapiens) MSRSKRDNNFYSVEIGDSTFTVLKRYQNLKPIGSGAQGIVCAAYDAILERNVAIKKLSRPFQNQTHAKRAYRELVLMKCVNHKNIIGLLNVFTPQKSLEEFQDVYIVMELMDANLCQVIQMELDHERMSYLLYQMLCGIKHLHSAGIIHRDLKPSNIVVKSDCTLKILDFGLARTAGTSFMMTPYVVTRYYRAPEVILGMGYKENVDLWSVGCIMGEMVCHKILFPGRDYIDQWNKVIEQLGTPCPEFMKKLQPTVRTYVENRPKYAGYSFEKLFPDVLFPADSEHNKLKASQARDLLSKMLVIDASKRISVDEALQHPHINVWYDPSEAEAPPPKIPDKQLDEREHTIEEWKELIYKEVMDLEERTKNGVIRGQPSPLAQVQQ	–	–	impaired in their activation	–	–	–
